Assay results published in the supplement of paper PMC11246515.
± gives the standard deviation of the averaged measurements.

Assay: total protein half-life in vivo (active degradation + dilution); higher = more stable protein
[1] = E. coli NCM3722 delta-lon, growth: N-lim chemostat, doubling time 6 h
[2] = wild type E. coli NCM3722, growth: C-lim chemostat, doubling time 3 h
[3] = E. coli NCM3722 delta-clpP delta-lon delta-hslV, growth: N-lim chemostat, doubling time 6 h
[4] = E. coli NCM3722 delta-clpP, growth: N-lim chemostat, doubling time 6 h
[5] = E. coli NCM3722 delta-hslV, growth: N-lim chemostat, doubling time 6 h
[6] = E. coli NCM3722 delta-smpB, growth: N-lim chemostat, doubling time 6 h
[7] = wild type E. coli NCM3722, growth: C-lim chemostat, doubling time 6 h
[8] = wild type E. coli NCM3722, growth: C-lim chemostat, doubling time 12 h
[9] = wild type E. coli NCM3722, growth: N-lim chemostat, doubling time 6 h
[10] = wild type E. coli NCM3722, growth: N-lim chemostat, doubling time 12 h
[11] = wild type E. coli NCM3722, growth: P-lim chemostat, doubling time 6 h
[12] = wild type E. coli NCM3722, growth: P-lim chemostat, doubling time 12 h

Sequence | total protein half-life in vivo [1] [h] | total protein half-life in vivo [2] [h] | total protein half-life in vivo [3] [h] | total protein half-life in vivo [4] [h] | total protein half-life in vivo [5] [h] | total protein half-life in vivo [6] [h] | total protein half-life in vivo [7] [h] | total protein half-life in vivo [8] [h] | total protein half-life in vivo [9] [h] | total protein half-life in vivo [10] [h] | total protein half-life in vivo [11] [h] | total protein half-life in vivo [12] [h]
MIEQFFRPDSVEQALELKRRYQDEAVWFAGGSKLNATPTRTDKKIAISLQDLELDWVDWDNGALRIGAMSRLQPLRDARFIPAALREALGFVYSRHVRNQSTIGGEIAARQEESVLLPVLLALDAELVFGNGETLSIEDYLACPCDRLLTEIIIKDPYRTCATRKISRSQAGLTVVTAAVAMTDHDGMRIALDGVASKALRLHDVEKQNLEGNALEQAVANAIFPQEDLRGSVAYKRYITGVLVADLYADCQQAGEEAV | 0.974 |  |  |  |  |  |  |  |  |  |  | 
MSDQIIARVSQSLAKEQSLESLVRQLLEMLEMVTDMESTYLTKVDVEARLQHIMFARNSQKMYIPENFTVSWDYSLCKRAIDENCFFSDEVPDRWGDCIAARNLGITTFLSTPIHLPDGSFYGTLCAASSEKRQWSERAEQVLQLFAGLIAQYIQKEALVEQLREANAALIAQSYTDSLTGLPNRRAIFENLTTLFSLARHLNHKIMIAFIDLDNFKLINDRFGHNSGDLFLIQVGERLNTLQQNGEVIGRLGGDEFLVVSLNNENADISSLRERIQQQIRGEYHLGDVDLYYPGASLGIVEVDPETTDADSALHAADIAMYQEKKHKQKTPFVAHPALHS |  | 0.233 |  |  |  |  |  |  |  |  |  | 
MKDVVDKCSTKGCAIDIGTVIDNDNCTSKFSRFFATREEAESFMTKLKELAAATSSADEGASVAYKIKDLEGQVELDAAFTFSCQAEMIIFELSLRSLA | 2.85 ± 0.098 | 2.11 ± 0.4 | 5.09 ± 0.21 | 4.2 | 2.6 ± 0.38 | 2.09 ± 0.23 | 4.95 ± 1.9 | 5.78 ± 0.33 | 2.26 ± 0.19 | 3.38 ± 0.55 | 4 ± 0.22 | 7.6436 ± 0.0046
MKLAACFLTLLPGFAVAASWTSPGFPAFSEQGTGTFVSHAQLPKGTRPLTLNFDQQCWQPADAIKLNQMLSLQPCSNTPPQWRLFRDGEYTLQIDTRSGTPTLMISIQNAAEPVASLVRECPKWDGLPLTVDVSATFPEGAAVRDYYSQQIAIVKNGQIMLQPAATSNGLLLLERAETDTSAPFDWHNATVYFVLTDRFENGDPSNDQSYGRHKDGMAEIGTFHGGDLRGLTNKLDYLQQLGVNALWISAPFEQIHGWVGGGTKGDFPHYAYHGYYTQDWTNLDANMGNEADLRTLVDSAHQRGIRILFDVVMNHTGYATLADMQEYQFGALYLSGDEVKKSLGERWSDWKPAAGQTWHSFNDYINFSDKTGWDKWWGKNWIRTDIGDYDNPGFDDLTMSLAFLPDIKTESTTASGLPVFYKNKMDTHAKAIDGYTPRDYLTHWLSQWVRDYGIDGFRVDTAKHVELPAWQQLKTEASAALREWKKANPDKALDDKPFWMTGEAWGHGVMQSDYYRHGFDAMINFDYQEQAAKAVDCLAQMDTTWQQMAEKLQGFNVLSYLSSHDTRLFREGGDKAAELLLLAPGAVQIFYGDESSRPFGPTGSDPLQGTRSDMNWQDVSGKSAASVAHWQKISQFRARHPAIGAGKQTTLLLKQGYGFVREHGDDKVLVVWAGQQ | 7.45 | 3.262 ± 0.0075 | 4.78 ± 0.17 | 7.23 ± 0.88 | 4.97 | 5.36 ± 0.33 | 6.26 ± 0.66 |  | 5.75 | 9.72 | 7.07 | 9.37 ± 2.8
MKISDGNWLIQPGLNLIHPLQVFEVEQQDNEMVVYAAPRDVRERTWQLDTPLFTLRFFSPQEGIVGVRIEHFQGALNNGPHYPLNILQDVKVTIENTERYAEFKSGNLSARVSKGEFWSLDFLRNGERITGSQVKNNGYVQDTNNQRNYMFERLDLGVGETVYGLGERFTALVRNGQTVETWNRDGGTSTEQAYKNIPFYMTNRGYGVLVNHPQCVSFEVGSEKVSKVQFSVESEYLEYFVIDGPTPKAVLDRYTRFTGRPALPPAWSFGLWLTTSFTTNYDEATVNSFIDGMAERNLPLHVFHFDCFWMKAFQWCDFEWDPLTFPDPEGMIRRLKAKGLKICVWINPYIGQKSPVFKELQEKGYLLKRPDGSLWQWDKWQPGLAIYDFTNPDACKWYADKLKGLVAMGVDCFKTDFGERIPTDVQWFDGSDPQKMHNHYAYIYNELVWNVLKDTVGEEEAVLFARSASVGAQKFPVHWGGDCYANYESMAESLRGGLSIGLSGFGFWSHDIGGFENTAPAHVYKRWCAFGLLSSHSRLHGSKSYRVPWAYDDESCDVVRFFTQLKCRMMPYLYREAARANARGTPMMRAMMMEFPDDPACDYLDRQYMLGDNVMVAPVFTEAGDVQFYLPEGRWTHLWHNDELDGSRWHKQQHGFLSLPVYVRDNTLLALGNNDQRPDYVWHEGTAFHLFNLQDGHEAVCEVPAADGSVIFTLKAARTGNTITVTGAGEAKNWTLCLRNVVKVNGLQDGSQAESEQGLVVKPQGNALTITL |  | 3.394 ± 0.019 | 5.8 | 5.9 ± 0.59 | 5.652 ± 0.053 | 5.11 ± 0.41 | 6.93 ± 0.64 | 13 ± 0.71 | 6.27 | 12.7 ± 0.22 |  | 11.5 ± 2.9
MGFLSGKRILVTGVASKLSIAYGIAQAMHREGAELAFTYQNDKLKGRVEEFAAQLGSDIVLQCDVAEDASIDTMFAELGKVWPKFDGFVHSIGFAPGDQLDGDYVNAVTREGFKIAHDISSYSFVAMAKACRSMLNPGSALLTLSYLGAERAIPNYNVMGLAKASLEANVRYMANAMGPEGVRVNAISAGPIRTLAASGIKDFRKMLAHCEAVTPIRRTVTIEDVGNSAAFLCSDLSAGISGEVVHVDGGFSIAAMNELELK [P0AEK4] | 5.88 ± 0.25 | 3.26 ± 0.14 | 5.4 ± 0.09 | 5.37 ± 0.42 | 5.299 ± 0.046 | 4.97 ± 0.28 | 5.9 ± 1.1 | 11 ± 1.2 | 5.28 ± 0.18 | 10.2 ± 2 | 6.19 ± 0.08 | 13.74 ± 0.13
MRIFVYGSLRHKQGNSHWMTNAQLLGDFSIDNYQLYSLGHYPGAVPGNGTVHGEVYRIDNATLAELDALRTRGGEYARQLIQTPYGSAWMYVYQRPVDGLKLIESGDWLDRDK [P0AE48] | 5.345 ± 0.014 | 2.57 ± 0.21 | 5.12 ± 0.42 | 4.63 ± 0.19 | 4.95 ± 0.15 | 5 ± 0.3 | 5.316 ± 0.012 | 8.87 ± 0.3 | 4.49 ± 0.61 | 7.76 ± 0.7 | 5.27 ± 0.36 | 11.5 ± 1.6
MKFKVIALAALMGISGMAAQANELPDGPHIVTSGTASVDAVPDIATLAIEVNVAAKDAATAKKQADERVAQYISFLELNQIAKKDISSANLRTQPDYDYQDGKSILKGYRAVRTVEVTLRQLDKLNSLLDGALKAGLNEIRSVSLGVAQPDAYKDKARKAAIDNAIHQAQELANGFHRKLGPVYSVRYHVSNYQPSPMVRMMKADAAPVSAQETYEQAAIQFDDQVDVVFQLEPVDQQPAKTPAAQ [P0ADS6] | 6.77 ± 1.2 | 3.2 ± 0.14 | 6.45 ± 0.46 | 6.67 ± 0.7 |  | 5.98 ± 0.096 | 5.88 ± 0.43 | 12.1 ± 1.4 | 5.83 ± 0.65 | 12.1 ± 1.2 | 5.59 ± 0.14 | 11.7 ± 0.76
MESIQPWIEKFIKQAQQQRSQSTKDYPTSYRNLRVKLSFGYGNFTSIPWFAFLGEGQEASNGIYPVILYYKDFDELVLAYGISDTNEPHAQWQFSSDIPKTIAEYFQATSGVYPKKYGQSYYACSQKVSQGIDYTRFASMLDNIINDYKLIFNSGKSVIPPMSKTESYCLEDALNDLFIPETTIETILKRLTIKKNIILQGPPGVGKTFVARRLAYLLTGEKAPQRVNMVQFHQSYSYEDFIQGYRPNGVGFRRKDGIFYNFCQQAKEQPEKKYIFIIDEINRANLSKVFGEVMMLMEHDKRGENWSVPLTYSENDEERFYVPENVYIIGLMNTADRSLAVVDYALRRRFSFIDIEPGFDTPQFRNFLLNKKAEPSFVESLCQKMNELNQEISKEATILGKGFRIGHSYFCCGLEDGTSPDTQWLNEIVMTDIAPLLEEYFFDDPYKQQKWTNKLLGDS |  | 3.13 ± 0.25 | 5.77 ± 0.24 | 3.81 |  | 4 ± 0.19 | 6.02 ± 2.1 | 8.15 ± 0.33 | 4.41 ± 0.59 |  | 5.12 ± 0.74 | 6.46 ± 0.81
MGSNIHGISCTANNYLKQAWNDIKNEYEKNQTYSITLFENTLVCFMRLYNELRRKVNEEDTPCLECESLEKEFEEMQNDNDLSLFMRILRTNDTQIYSGVSGGITYTIQYVRDIDIVRVSLPGRASESITDFKGYYWYNFMEYIENINACDDVFSEYCFDDENISVQPERINTPGISDLDSDIDLSGISFIQRETNQALGLKYAPVDGDGYCLLRAILVLKQHDYSWALVSYKMQKEVYNEFIKMVDKKTIEALVDTAFYNLREDVKTLFGVDLQSDNQIQGQSSLMSWSFLFFKKQFIDSCLNNEKCILHLPEFIFNDNKNLLALDTDTSDRIKAVKNFLVVLSDSICSLFIVNSNVASISLGNESFSTDEDLEYGYLMNTGNHYDVYLPPELFAQAYKLNNKEMNAQLDYLNRYAI | 5.18 |  |  |  |  |  |  |  |  |  |  | 
MKMANHPRPGDIIQESLDELNVSLREFARAMEIAPSTASRLLTGKAALTPEMAIKLSVVIGSSPQMWLNLQNAWSLAEAEKTVDVSRLRRLVTQ |  | 1.58 | 3.73 ± 0.35 |  |  | 1.217 ± 0.0059 | 2.32 | 2.59 |  |  |  | 3.05 ± 1.1
